Where a chain is given by its changes, count along the chain named. Names and notes keep the numbering of the source.
Experiments:
hCD112R-ECD-mFc WT = biological target: T1, hCD112R-ECD-mFc WT (human; mouse, UniProt Q6DKI7 42-172); experiment: SPR (Biacore T200), multi-cycle; H733-hIgG4 captured on anti-hFc Ab, hCD112R-ECD-mFc WT injected (3.125-100 nM); 1:1 Langmuir [Cont') B]
T1 construct: range 42-172; also called WT hCD112R; wildtype (WT) hCD112R protein; not shown: Fc domain of mouse IgG2a
T1 sequence (looked up): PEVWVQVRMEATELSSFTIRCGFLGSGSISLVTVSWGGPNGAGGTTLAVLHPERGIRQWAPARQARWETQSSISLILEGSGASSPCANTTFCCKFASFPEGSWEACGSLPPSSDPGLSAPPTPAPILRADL
Experimental: (§1) Kinetic analyses of the bindings of WT or mutated hCD112R-ECD-mFc proteins to H733 and hCD112-ECD were performed on a Biacore T200 instrument (Biacore, GE Healthcare). For the single-cycle SPR analysis, anti-mFc Ab (Thermo Fisher) was covalently attached to surfaces of a CM5 sensor chip using an amine coupling kit (GE Healthcare). WT or mutated hCD112R-ECD mFc fusion proteins were captured on the chip and H733-hIgG4 or hCD112-ECD-hFc were then injected. For the multi-cycle SPR analysis, anti-hFc Ab (Thermo Fisher) was covalently attached to surfaces of a CM5 sensor chip using an amine coupling kit (GE Healthcare). H733-hIgG4 or hCD112-ECD-hFc protein was captured on the chip and 2-fold serially diluted WT or mutated hCD112R-ECD-mFc proteins (3.125-100 nM) were then injected. Binding kinetics were evaluated using a 1:1 Langmuir binding model. The association rates (ka), dissociation rates (kd), and affinity constants (KD) were calculated using Biacore T200 evaluation software.

hCD112R-ECD-His6-Avi = biological target: T2, hCD112R-ECD-His6-Avi (human, UniProt Q6DKI7 42-172, biotinylated (Avi tag) in the ELISA assays); experiment: ELISA-based competition, biotinylated hCD112R-ECD-His6-Avi on streptavidin, competitor hCD112-ECD-mFc at 0.1 ug/ml
T2 construct: range 42-172; Expressed in HEK 293F cells; Analyte in SPR, and captured on streptavidin in ELISA; also called biotinylated hCD112R-ECD-His6-Avi; not shown: C-terminal His6-Avi tag
T2 sequence (looked up): T1 sequence (looked up)
Experimental: Biotinylated hCD112R-ECD-His₆-Avi protein antigen was captured with streptavidin (Sigma) coated 96-well plates (Nunc, MaxiSorp™). H733 serially diluted in 2% milk/PBS containing 0.1 μg/ml of the hCD112-ECD-mFc protein were added to the ELISA plates to test for competitive binding between hCD112R and hCD112. The signal was measured via ligand detection using HRP-anti-mouse IgG secondary Ab (Thermo Fisher Scientific).

L72A = biological target: T3, L72A (human, UniProt Q6DKI7); experiment: SPR (Biacore T200), multi-cycle; H733-hIgG4 captured on anti-hFc Ab, hCD112R-ECD-mFc variant injected (3.125-100 nM); 1:1 Langmuir [Cont') B]
T3 construct: extracellular domain, amino acids 42-172; alanine-scanning variant; also called hCD112R-ECD-mFc L72A variant
T3 sequence (Fc fusion chain, looked up): T1 sequence (looked up) with L31A
Experimental: as §1

[1] = biological target: T4, hCD112R-ECD-mFc E145A variant (human; mouse, UniProt Q6DKI7 42-172); experiment: as above
T4 construct: range 42-172; also called E145A mutation of hCD112R; not shown: Fc domain of mouse IgG2a
T4 sequence (looked up): T1 sequence (looked up) with E104A
Experimental: as §1

F139A = biological target: T5, F139A (human, UniProt Q6DKI7); experiment: as above
T5 construct: extracellular domain, amino acids 42-172; alanine-scanning variant; also called hCD112R-ECD-mFc F139A variant
T5 sequence (Fc fusion chain, looked up): T1 sequence (looked up) with F98A
Experimental: as §1

[2] = biological target: T6, hCD112R-ECD-mFc V90A variant (human; mouse, UniProt Q6DKI7 42-172); experiment: as above
T6 construct: range 42-172; also called V90A mutation of hCD112R; not shown: Fc domain of mouse IgG2a
T6 sequence (looked up): T1 sequence (looked up) with V49A
Experimental: as §1

[3] = biological target: V90A, W100A, or E145A mutation of hCD112R (hCD112R-ECD-mFc variants, as a group); experiment: SPR, multi-cycle, H733-hIgG4 captured by anti-hFc Ab, hCD112R-ECD-mFc variants as analytes (3.125-100 nM)

Kd (hCD112R-ECD-mFc WT): 0.333 nM
koff (hCD112R-ECD-mFc WT): 0.000364 s⁻¹
kon (hCD112R-ECD-mFc WT): 1.1e+06 M⁻¹ s⁻¹
IC50 (hCD112R-ECD-His6-Avi): 0.87 µg/mL
Kd (L72A): 0.469 nM
koff (L72A): 0.000394 s⁻¹
kon (L72A): 840000 M⁻¹ s⁻¹
Kd [1]: 1.42 nM
koff [1]: 0.000418 s⁻¹
kon [1]: 296000 M⁻¹ s⁻¹
Kd (F139A): 0.165 nM
koff (F139A): 0.000232 s⁻¹
kon (F139A): 1.4e+06 M⁻¹ s⁻¹
Kd [2]: 2.01 nM
koff [2]: 0.000475 s⁻¹
kon [2]: 237000 M⁻¹ s⁻¹
fold decrease of binding as compared with WT hCD112R [3]: 4 to 15 fold
B1: H733 (humanized Ab composed of 733-VH-humanV2 and 733-VL-human-C91S) (antibody, human IgG4, V domains shown)
VH: QVQLVQSGAEVKKPGASVKVSCKASGYTFTNYLIEWVRQAPGQGLEWMGVINPGHGFTNYAQKFQGRVTMTRDTSTSTVYMELSSLRSEDTAVYYCARGEWDWYFDVWGQGTTVTVSS
VL: DIQLTQSPSFLSASVGDRVTITCKASQNVGTAVAWYQQKPGKAPKLLIYSTSNRYTGVPSRFSGSGSGTEFTLTISSLQPEDFATYYCQQSSSYPFTFGGGTKVEIK
notes: also called H733-hIgG4; H733 mAb (hIgG4 form)
